This note sets out measurements from patent publication US20190241663A1 (Genentech, published 2019).

To fix the notation:
T1: irrelevant (Ig-V)-B7-H4 (Ig-C; D158-G236 including TM/CD D237-K282) chimeric membrane protein (construct-88B) (human, UniProt Q7Z7D3 158-282)
T1 construct: Transiently expressed on 293 cells; also called B7-H4 Ig-C domain; not shown: irrelevant Ig-V domain; an N-terminal or cytoplasmic tag was attached but is not described
T1 sequence: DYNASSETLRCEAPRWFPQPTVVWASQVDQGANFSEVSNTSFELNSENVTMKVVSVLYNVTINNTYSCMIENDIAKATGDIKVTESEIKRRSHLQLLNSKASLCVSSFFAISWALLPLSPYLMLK

T2: S114A human B7-H4 (full-length membrane construct, glycosylation site N112-S114 removed) (human, UniProt Q7Z7D3 29-282)
T2 construct: Transiently transfected into 293 cells; also called mutated S114A human B7-H4
T2 sequence: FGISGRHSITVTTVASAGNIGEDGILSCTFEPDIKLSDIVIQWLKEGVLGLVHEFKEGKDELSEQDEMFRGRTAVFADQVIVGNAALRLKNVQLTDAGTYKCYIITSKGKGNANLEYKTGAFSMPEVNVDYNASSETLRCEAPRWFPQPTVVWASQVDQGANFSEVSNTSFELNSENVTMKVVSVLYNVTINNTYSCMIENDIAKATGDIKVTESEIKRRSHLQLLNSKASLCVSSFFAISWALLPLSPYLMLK

B1: chimeric antibody ch32D6 (antibody, V domains shown)
VH: EVQLQQSGPDLVKPGASVKISCKASGYSFTGYYIHWMKQSHGKSLEWIGRVNPNNGDPIYNQKFRGKAILTVDQSSNTAYMELRSLTSEASAVYYCARVLFYYGSPFAYWGQGTLVTVSA
VL: DIVMTQSPSSLIVTAGEKVTMSCRSSQSLFDSGSQRNYLTWFHQKPGRPPKLLIYWASTRESGVPDRFTGSGSGTDFTLTISSVQTEDLAVYFCQNDYSFPFTFGSGTKLEEK
B2: chimeric antibody ch9B9 (antibody, V domains shown)
VH: QVQLQQSGAELMKPGASVKMSCKATGYTFSSYWIEWVKQRPGHGLEWIGEILPGTSITTYNAKFKVKATFTADTSSNTAYMQLSSLTSEDSAVYFCARYYFGSSSFYFDYWGQGTSLTVSS
VL: QAVVTQESALTTSPGDTVTLTCRSSTGAVTTSNYANWVQEKPDHLFTGLIGGTNNRVPGVPARFSGSLIGDKAALTITGAQTEDEAMYFCALWYNNHWVFGGGTKLE
B3: chimeric antibody ch22C10 (antibody, V domains shown)
VH: QVQLQQPGAELVKPGTSVKLSCKASGYTFTNFWIHWVIQRPGQGLEWIGEIDPSDSYTNYNQKFKGKATLTVDKSSNTAYMQLSSLTSEDSAVYYCSREITTVDYWGQGTTLTVSS
VL: QIVLTQSPTIMSASPGEKVTLTCSATSSISYMHWYQQKPGTSPKGWIYDTSKLAHGVPARFSGSGSGTSYSLTISSMEAEDAATYYCHQRRSYPFTFGSGTKLEIK
notes: also called ch2210; parental 22C10 antibody
B4: ch1D11, slightly modified version with light chain C43G (antibody, human IgG1, V domains shown)
VH: QVQLQQSGAELVRPGTSVKMSCKASGYTFTSYWIGWAKQRPGHGFEWIGDIYPGGGYTNYNEKFKGKATLTADKSSSTAYMQFSSLTSEDSAIYYCARLDGSSYRGAMDSWGQGTSITVSS
VL: DIQMTQSPSSLSASLGGKVTITCKASQGFNKYVAWYQHKPGQGPRLLIHYTSTLQPGIPARFSGSGSGRDYSFSISNLEPEDSATYFCLQYGNLLYAFGGGTKLEIKR
notes: Human IgG1 / kappa chimeric; also called ch1D11 (C43G light chain)

One assay has as its target T1, irrelevant (Ig-V)-B7-H4 (Ig-C; …). Put plainly: FACS on 293 cells transiently transfected with construct-88B, dye-labeled antibody. The text has this: To determine whether the B7-H4 antibodies bind to either the Ig-V or Ig-C domain of B7-H4, chimeric Ig domain molecules were engineered that contain either a B7-H4 (IgV; G28-F150 including spacer S151-V157)—irrelevant (Ig-C) (construct-88) or an irrelevant (Ig-V)-B7-H4 (Ig-C; D158-G236 including TM/CD D237-K282) (construct-88B) membrane protein using standard molecular cloning methods. N-terminal or cytoplasmic tags were attached to confirm that 293 cells transfected with these constructs express protein on the cell membrane (data not shown). Briefly, 293 cells were transiently transfected with constructs 88 & 88B using polyfect. After 48 hours, the cells were stained with 10 μg/ml of Dylight-488 or −650 labeled ch9B9, ch1D11, ch22C10 or ch32D6 for 30-40 minutes at 4° C., washed and analyzed on a BD FACS calibur.
Regarding B1, the binding result is “no binding (tested: 10 µg/ml)”.
On the same count and under the same terms, the value for B2 was “no binding (tested: 10 µg/ml)”.
Same read-out and setting: the entry for B3 is “no binding (tested: 10 µg/ml)”; for B4 it is “no binding (tested: 10 µg/ml)”.

The target of a further assay is T2, S114A human B7-H4 (full-length membrane …). The assay is described as follows: FACS on 293 cells transfected with S114A human B7-H4, against isotype control. The source says: The B7-H4 (Ig-V) domain contains a single N-linked glycosylation site (N112-S114), and to determine whether glycosylation influences binding of the antibodies to B7-H4, S114 was substituted with alanine using standard site-specific mutagenesis to prevent glycosylation in the full-length human B7-H4 membrane construct.
As to B1, the “fold binding over isotype control” value amounted to 100 fold.
The same measure, in the same setting: the figure for B2 is 100 fold; for B3 it is 100 fold; for B4 it is 100 fold.
